From PMC11295463, “Prefoldins are novel regulators of the unfolded protein response in artemisinin resistant Plasmodium falciparum malaria [image fx3.gif]” (The Journal of Biological Chemistry, 2024)

T1: recombinant PfPFD5 (6x-His-PfPFD5) (P. falciparum 3D7, UniProt Q8II82 1-248, RED-NHS dye label (labelled protein in MST))
T1 construct: Prefoldin subunit 5 of P. falciparum 3D7, PF3D7_1128100; CDS amplified from Pf3D7 cDNA; Resolved at 30 kDa on SDS-PAGE; also called rPfPFD5; Prefoldin subunit 5; source: E. coli BL21 (λDE3), pET-28a(+), purified (Ni-NTA)
T1 sequence: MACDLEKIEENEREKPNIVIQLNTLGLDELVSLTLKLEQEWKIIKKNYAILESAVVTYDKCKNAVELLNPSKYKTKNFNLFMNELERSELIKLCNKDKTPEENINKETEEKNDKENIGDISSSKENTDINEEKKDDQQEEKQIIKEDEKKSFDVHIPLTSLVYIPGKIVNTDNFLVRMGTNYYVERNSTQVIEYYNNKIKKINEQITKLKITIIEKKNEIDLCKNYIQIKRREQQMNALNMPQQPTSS

B1: recombinant PfPFD2 (6x-His-PfPFD2) (natural protein)
chain: METKSNVESPNISEPKESKLTYEQIEKDRVQLVSKIEELYQDVVEHKLVLEALENVPSDRRCYRMVGEVLVERTVGEIKPALMDHKNKVEQVIAECQKQLDQKNNEISNFIKSAKAGNLPGGIINGNPSEDTNNLNDKEKKSDGIIF
notes: Prefoldin subunit 2 of P. falciparum 3D7, PF3D7_1416900; CDS amplified from Pf3D7 cDNA; Resolved at 19 kDa on SDS-PAGE; also called rPfPFD2; Prefoldin subunit 2; source: E. coli BL21 (λDE3), pET-28a(+), purified (Ni-NTA)
B2: recombinant PfPFD4 (6x-His-PfPFD4) (natural protein)
chain: MGDIKQNKYDLGLDMTVDDQKKIGKFTNLHYKEPLYEHKIKMMKENIMNIDSSIDEVSLAFDSNDIMLNIGDCFFKFDLDYIEEHLEDRKSEELANLNEMELEYKTKLNEKQKLKTELYAKFGNRIDLN
notes: Prefoldin subunit 4 of P. falciparum 3D7, PF3D7_0904500; CDS amplified from Pf3D7 cDNA; Resolved at 17 kDa on SDS-PAGE; also called rPfPFD4; Prefoldin subunit 4; source: E. coli BL21 (λDE3), pET-28a(+), purified (Ni-NTA)
B3: recombinant PfK13 (∼43 kDa) (natural protein)
chain: TMIDINVGGAIFETSRHTLTQQKDSFIEKLLSGRHHVTRDKQGRIFLDRDSELFRIILNFLRNPLTIPIPKDLSESEALLKEAEFYGIKFLPFPLVFCIGGFDGVEYLNSMELLDISQQCWRMCTPMSTKKAYFGSAVLNNFLYVFGGNNYDYKALFETEVYDRLRDVWYVSSNLNIPRRNNCGVTSNGRIYCIGGYDGSSIIPNVEAYDHRMKAWVEVAPLNTPRSSAMCVAFDNKIYVIGGTNGERLNSIEVYEEKMNKWEQFPYALLEARSSGAAFNYLNQIYVVGGIDNEHNILDSVEQYQPFNKRWQFLNGVPEKKMNFGAATLSDSYIITGGENGEVLNSCHFFSPDTNEWQLGPSLLVPRFGHSVLIANI
modifications: Construct limits are not printed. The ~43 kDa band does not fit the full-length 726 aa protein (~83 kDa). It fits the BTB-Kelch propeller region, taken by convention from the BTB domain start at …
B4: recombinant PfPFD3 (6x-His-PfPFD3) (natural protein)
chain: MSFDDLTDNTKSVRNIPGAKFIEHVTEFLQNKNEESILRLARELLLKYKFMEHAFVSRQINTQKKIPELKDALRVVQLLEKRKKIKEKKNLETFFPVEESLYARGIVQKTDKILLWLGANVMVEFPFDEATDLLNQHLERAINLSQEMDNELLWLHEQITTTEINISRIHNYIELKKGMMGKEVDKKTEQVN
modifications: RED-NHS dye label where it was the labelled protein in MST
notes: Prefoldin subunit 3 of P. falciparum 3D7, PF3D7_0718500; CDS amplified from Pf3D7 cDNA; Resolved at 24 kDa on SDS-PAGE; Unlabelled when titrated onto labelled PfPFD5; also called rPfPFD3; Prefoldin subunit 3; source: E. coli BL21 (λDE3), pET-28a(+), purified (Ni-NTA)
B5: recombinant PfPFD6 (6x-His-PfPFD6) (natural protein)
chain: MSQEKISEIIKDISALKTSCEKLNSQLDELITQKVENEMLLEEVKVLEDDSVLHKLVGLVLVKEEKSKCYDTISRRLQYITGEIENRKKVITNSEEKLRKLFSDLEAHAGQRKIPVPQA
notes: Prefoldin subunit 6 of P. falciparum 3D7, PF3D7_0512000; CDS amplified from Pf3D7 cDNA; Resolved at 16 kDa on SDS-PAGE; also called rPfPFD6; Prefoldin subunit 6; source: E. coli BL21 (λDE3), pET-28a(+), purified (Ni-NTA)
B6: recombinant PfPFD1 (6x-His-PfPFD1) (natural protein)
chain: MSNLYDILGKAVINKEKKDEFQNLILKSEGFIDDVLHEKLRERQKKRDEILQDLFDMEILIENLKLFVNMKDKSEVETLTSLGCDSYVYADIINKNKIFIQLGYEFYLEMTLEEAIKFLKKKINLYEEKLSYWNKQISHVKAHIQILMRAISNLT
notes: Prefoldin subunit 1 of P. falciparum 3D7, PF3D7_1107500; CDS amplified from Pf3D7 cDNA; Resolved at 20 kDa on SDS-PAGE; also called rPfPFD1; Prefoldin subunit 1; source: E. coli BL21 (λDE3), pET-28a(+), purified (Ni-NTA)

Legend:
[1] = target: T2, PfPFD3 (Prefoldin subunit 3, PF3D7_0718500) (Plasmodium falciparum, UniProt Q8IBR6); test: competitive microscale thermophoresis: labelled PfPFD3-PfPFD1 complex titrated with BPD; format: binding
T2 construct: recombinant 6x-His-PfPFD3 (CDS in pET-28a(+)), RED-NHS labelled; with PfPFD1 (PF3D7_1107500)

[2] = target: T1, recombinant PfPFD5 (6x-His-PfPFD5); test: MST; Monolith NT.115; PfPFD3 or PfPFD5 labelled with RED-NHS dye, titrated with the other PfPFD subunits; 1× PBS pH 7.5, 0.01% tween-20; 10 min at room temperature; steady-state analysis; conditions: both partners purified
[3] = target: B4; test: as above; conditions: both partners purified
[4] = target: B5; test: SPR; AutoLab ESPRIT; recombinant PfK13 (20 μM) immobilised on a gold chip by amine coupling; PfPFD6 injected at 25 nM to 5 μM; PBS; two-state conformational change model, KD by the Integrated Rate Law equation; conditions: both partners purified

Row | Molecule | Kd [1] [µM] | Kd [2] [µM] | Kd [3] [µM] | Kd [4] [µM]
1 | OC(CCN1CCCCC1)(c1ccccc1)C1CC2C=CC1C2 (centres unmarked) [BPD, 1-{bicyclo[2.2.1]hept-5-en-2-yl}-1-phenyl-3-(piperidin-1-yl)propan-1-ol] | 1.99 |  |  | 
2 | B1 |  | 0.0424 | 0.682 | 
3 | B2 |  | 0.104 | 11.3 | 
4 | B3 |  |  |  | 0.174
5 | B4 |  | 1.34 |  | 
6 | B5 |  | 0.324 | 1.88 | 
7 | B6 |  | 0.851 | 0.0816 | 
